Results as given in article PMC3323041 (The Journal of Biological Chemistry, 2012).

B1: Mdv1(94-314) K215A/K216A, containing the NTE and coiled coil (domain or fragment, S. cerevisiae, UniProt P47025 94-314, looked up)
chain: DNKTCFRMLTYISDDLLNEIPTKEGLKSDADGKLLTEGGENENLRKNASKKETSLFQGFKSYLPIAELAIENTERLNYDTNGTSGTVGAKDVMSKTNERDEIHTELPNFQDSFLIPPGVETAAISSSYSPSALKSFSQTLVNSLEFLNIQKNSTLSEIRDIEVEVENLRQKKEKLLGKIANIEQNQLLLEDNLKQIDDRLDFLEEYGLEVIEANSDENAED

Tests used:
[1] = biological target: B1; assay: crystal structure
crystal structure = biological target: the molecule itself; assay: crystal structure

Row | Binder | binding result [1] | binding result (crystal structure)
1 | Yeast Fis1(1-129), lacking the transmembrane segment (domain or fragment, S. cerevisiae, UniProt P40515 1-129, looked up) MTKVDFWPTLKDAYEPLYPQQLEILRQQVVSEGGPTATIQSRFNYAWGLIKSTDVNDERLGVKILTDIYKEAESRRRECLYYLTIGCYKLGEYSMAKRYVDTLFEHERNNKQVGALKSMVEDKIQKETL | binds | –
2 | B1 | – | binds
